Results as given in paper PMC3655416 (Developmental cell, 2013).
One block for each molecule: values may come before it.

What was measured:
[1] = target: Purified SAS-5 C-terminus (C. elegans) (UniProt Q20010); experiment: SEC-MALS
[2] = target: the molecule itself; experiment: SEC
[3] = target: T1, Full-length SAS-5, purified, on beads (C. elegans, UniProt Q20010 1-404); experiment: pull-down
T1 sequence (looked up): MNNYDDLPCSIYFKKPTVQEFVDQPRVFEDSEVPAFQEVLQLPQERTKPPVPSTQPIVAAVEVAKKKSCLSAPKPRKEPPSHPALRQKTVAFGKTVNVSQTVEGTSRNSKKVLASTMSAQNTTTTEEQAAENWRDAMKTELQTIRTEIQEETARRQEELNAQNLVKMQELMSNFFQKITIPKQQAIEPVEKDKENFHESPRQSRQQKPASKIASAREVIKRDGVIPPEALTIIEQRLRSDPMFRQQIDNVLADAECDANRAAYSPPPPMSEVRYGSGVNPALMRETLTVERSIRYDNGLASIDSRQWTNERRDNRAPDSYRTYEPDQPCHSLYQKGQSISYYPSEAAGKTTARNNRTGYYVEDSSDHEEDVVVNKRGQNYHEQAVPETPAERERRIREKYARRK

stoichiometry N [1]: 2
Molecule: Purified SAS-5 C-terminus (from UniProt Q20010 1-404) (domain or fragment)

B1: WT SAS-6^1-389, purified (domain or fragment, C. elegans, UniProt O62479 1-389, looked up)
chain: MTSKIALFDQTLIASLLQPLSLNQPDFKAYKTKVKLKISEQRNETSGEKELKFEISRSDDFEFLFSETLNNEKYQILARDHDLTVDFDAFPKVIIQHLLCKNIVKNLEEDGEVDARKKAGYHSIADPGKPTEINIILDAEKNFCSFELFSKTPISKGKIFSIKLHAVRGDHLISHLLKICSSQAVKLSTFYKSADELASLRQKCGDLEKQVEKLSGVKEEFEEMSEKFKELEDEVELVKEERENIRLLVEDKEDEVADLKQDTESLQKQLEENQEELEIVGNMLREEQGKVDQLQKRNVAHQKEIGKLRAELGTAQRNLEKADQLLKRNSQQQNQQSLDMRKLGELEADLKEKDSMVESLTETIGILRKELENEKLKAAENMDSFEKLS
binding result [2]: binds

stoichiometry N [3]: 2 SAS-6:SAS-5
B2: Full-length WT SAS-6, purified (natural protein, C. elegans, UniProt O62479 1-492, looked up)
chain: MTSKIALFDQTLIASLLQPLSLNQPDFKAYKTKVKLKISEQRNETSGEKELKFEISRSDDFEFLFSETLNNEKYQILARDHDLTVDFDAFPKVIIQHLLCKNIVKNLEEDGEVDARKKAGYHSIADPGKPTEINIILDAEKNFCSFELFSKTPISKGKIFSIKLHAVRGDHLISHLLKICSSQAVKLSTFYKSADELASLRQKCGDLEKQVEKLSGVKEEFEEMSEKFKELEDEVELVKEERENIRLLVEDKEDEVADLKQDTESLQKQLEENQEELEIVGNMLREEQGKVDQLQKRNVAHQKEIGKLRAELGTAQRNLEKADQLLKRNSQQQNQQSLDMRKLGELEADLKEKDSMVESLTETIGILRKELENEKLKAAENMDSFEKLSMENENLKEKIAHYRAQRFSPAPSGLPGLQTGLTNRLTPSFKPVLGPHTPYGANLNSRTPFRDNTTLNFQNSTIATPHAFRFNSQLIADETTGSSVTNTPPAQR
